Here are results for 30 sequences from the nanobody polyreactivity screen of Harvey et al. (2022).

This series in a line: yeast display, Sf9 membrane polyspecificity reagent, FACS + sequencing; frameworks hold sequencing errors. The method, boiled down:
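Synthetic nanobody libraries on Saccharomyces cerevisiae BJ5465 were galactose-induced for 36–48 hours, stained 1 hour at 4 °C with 10% biotinylated, detergent-solubilized Sf9 membrane reagent and enriched on streptavidin microbeads. FACS then separated cells into low and high (top ~1%) gates by anti-HA (expression) and streptavidin (reagent binding) fluorescence. Genes were colony-PCR amplified, MiSeq 2 × 250 sequenced and CDR-length filtered. A clone's polyreactivity label is that of its gate of origin.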
Regarding “QVQLVESGGGLVQAGGSLRLSCAASGRTYGWYAMGWYRQAPGKERELVAAIRSSGGRTHYADSVKGRFTISRDNAKNTVYLQMNSLKPEDTAVYYCAARYSAAYYWGQGTQVTVSS”, the “polyreactivity (PSR sort gate)” value is recorded as “high polyreactivity”.

“QVQLVESGGGLVQAGGSLRLSCAASGRTYINNAMGWYRQAPGKERELVAAISRRGGSTYYADSVKGRFTISRDNAKNTVYLQMNSLKPEDTAVSYCAADAFRSQRPYTYDYWGQGTQVTVSS”: the “polyreactivity (PSR sort gate)” value is “high polyreactivity”.

“QVQLVESGGGLVQAGGSLRLSCAASGRTYKINAMGCYRQAPGKERELVASISRTGGTTYYADSVKGRFTNSRDNAKNTVYLQMNSLNPEDTAVYYCAVSDFGLLDCLTIYDEYDYWGQGTQVTVSS”: the “polyreactivity (PSR sort gate)” value was “high polyreactivity”.

As for “QVQLVESGGGLVQAGGSLRLSCAASGRTYNPYAMGWYRQAPGKERELVAVISSIGGSTYADSVTGRFTISRDNAKNTVYLQMNSLKTEDTAVFYCNRATFGQWGGDYWGQGTQVTVSS”, the “polyreactivity (PSR sort gate)” value was “high polyreactivity”.

Turning to “QVQLVESGGGLVQAGGSLRLSCAASGRTYRSYTMGWYRQAPGKERELVASISRRGGSTYYADSVKGRFTISRDNAKNTVYLQMNSLKPEDTAVYYCAAVNVYDAYEYWGQGTQVTVSS”, the “polyreactivity (PSR sort gate)” value is reported as “high polyreactivity”.

For the sequence “QVQLVESGGGLVQAGGSLRLSCAASGRTYSRNAMGWYRQAPGKERELVATISRGGGITFYADSVKGRFTISRDNAKNTVYLQMNSLKPEDTAVYYCAAQYYYWTRRPGDYWGQGTQVTVSS”, the “polyreactivity (PSR sort gate)” value is reported as “high polyreactivity”.

In the case of “QVQLVESGGGLVQAGGSLRLSCAASGRTYVVKAMGWYRQAPGKERELVAAIIRGNTYYADSVKGRFTISRDNAKNTVYLQMNSLKPEDTAVYYCAARYSPYKYYYWGQGTQVTVSS”, the “polyreactivity (PSR sort gate)” value was “high polyreactivity”.

As for “QVQLVESGGGLVQAGGSLRLSCAASGRTYYGNAMGWYRQAPGKERELVAAITSGGGSTRYADSVKGRFTISRDNAKNTVYLQMNSLKPEDTAVYYCNATLGNFGYRRYSGHTRYYYWGQGTQVTVSS”, the “polyreactivity (PSR sort gate)” value was “high polyreactivity”.

Regarding “QVQLVESGGGLVQAGGSLRLSCAASGRVYAMGWYRQAPGKERELVAPITTSGGRTYYADSVKGRFTISRDNAKNSVYCQMNSLKPEDTAVYYCNKPGYPPSDMYYWGQGTQVNVSS”, the “polyreactivity (PSR sort gate)” value was “low polyreactivity”.

Take “QVQLVESGGGLVQAGGSLRLSCAASGSFINRYAMGWYRQAPGKERELVAAITQSGGRTYYADSVKGRFTISRDNAKNTVYLQMNSLKPEDTAVYYCNAVRWYLYDYWGQGTQVTVSS”: the “polyreactivity (PSR sort gate)” value is listed as “high polyreactivity”.

Regarding “QVQLVESGGGLVQAGGSLRLSCAASGSICDRNAMGWYRQAPGKERELVANITWSGVSTYYADSVKGRFTMSRDNAKNTVYLQMNSLKPDDTAVYYCNADYSYRHWYDPGQYGQAMGYWGQGTQVTVSS”, the “polyreactivity (PSR sort gate)” value is “low polyreactivity”.

“QVQLVESGGGLVQAGGSLRLSCAASGSICGPYALGWYRQAPGKERELVAAITWTGGRTYYADSVKGRFTISRDNAKNTVYFQMNSLKPEDTAVYYCAADYSPSTWYLYYTLYYYWGQGTQVTVSS”: the “polyreactivity (PSR sort gate)” value is “low polyreactivity”.

As for “QVQLVESGGGLVQAGGSLRLSCAASGSIFAANAMGWYRQAHGKERELVAAISWSGGYTYADSVKGRFTISRDNAKNTVYLQMKSLKPEDTAFYYCAADLWSQYKFGYWGQGTLVTVSS”, the “polyreactivity (PSR sort gate)” value is listed as “low polyreactivity”.

Turning to “QVQLVESGGGLVQAGGSLRLSCAASGSIFAANAMGWYRQAPGKERELVAAISWSGGSTYADSVKGRFTISRDNAKNTVYLQMNSLKPEDTAVYYCNAYVYVGTGRGYDTLDYWGQGTQVTVSS”, the “polyreactivity (PSR sort gate)” value is recorded as “low polyreactivity”.

In the case of “QVQLVESGGGLVQAGGSLRLSCAASGSIFAANAMGWYRQAPGKERELVAAITSGGSTDYADSVKGRFTISRDNAKNTVYLEMNSLKPEDTAVYYCAKGYVPYAIFDYWGQGTQVTVSS”, the “polyreactivity (PSR sort gate)” value is listed as “low polyreactivity”.

Turning to “QVQLVESGGGLVQAGGSLRLSCAASGSIFAAYTMGWYRQAPGKERELVAAISVSTVSTYYADSVKGRFTISRDNAKISVYLQMNSLKPEDTAVYYCNADSTTQDYDYWGQGTQVTVSS”, the “polyreactivity (PSR sort gate)” value is on record as “low polyreactivity”.

In the case of “QVQLVESGGGLVQAGGSLRLSCAASGSIFAAYTMGWYRQAPGKERELVAAISVSTVSTYYADSVKGRFTISRDNAKNTVYIQMNSLKPEDTAVYYCNADATDSYPEKDEHDSWGQGTQVTVSS”, the “polyreactivity (PSR sort gate)” value is “low polyreactivity”.

For “QVQLVESGGGLVQAGGSLRLSCAASGSIFADNAMGWYRQAPGKEMELVADISWSGGRTYYADSVKGRFTISRDNAKNTVYLQMNSLKPEDTAVYYCAARYRDYRAGFDYWGQGTQLTVSS”, the “polyreactivity (PSR sort gate)” value is “high polyreactivity”.

For the sequence “QVQLVESGGGLVQAGGSLRLSCAASGSIFADYAMGWYRQAPGKERELVAVITSGGRTNYADSVKGRFTISRDNAKNTVYLQMNSLKPEDTAVYYCDTRRYRYYAYRNYYYWGQGTQVTVSS”, the “polyreactivity (PSR sort gate)” value is given as “high polyreactivity”.

With “QVQLVESGGGLVQAGGSLRLSCAASGSIFADYAMGWYRQAPGKERELVAVITSSGGSTNYADSVKGRFTISRDNAKNTVYLQMNSLKPEDTAVYYCNRRPYPSYDYWGQGTQVTVSS”, the “polyreactivity (PSR sort gate)” value was “low polyreactivity”.

As to “QVQLVESGGGLVQAGGSLRLSCAASGSIFADYVMGWYRQAPGKERELVAAITRRGRTYYSDSVKGRFTISRDNAMNTVYIQMNILKPEDSAVYYCDKVASGKIDSWGQGTQVTVSS”, the “polyreactivity (PSR sort gate)” value was “low polyreactivity”.

In the case of “QVQLVESGGGLVQAGGSLRLSCAASGSIFAFYTMGWYRQAPGKERELVATITRSGRTNYADSVKGRFTISRDNAKNTVYLQMNSLKPEDTAVYYCAAGYLSGNYARYGYWGQGTQVTVSS”, the “polyreactivity (PSR sort gate)” value is listed as “high polyreactivity”.

For the sequence “QVQLVESGGGLVQAGGSLRLSCAASGSIFAGYAIGWYRQAPGKERELVAAISWSGGGTYYADSVKGRFTISRDNAKNTVYLQMNSLKPEDTAVYYCNAYGYRHRGNGYWGQGTQVTVSS”, the “polyreactivity (PSR sort gate)” value is “high polyreactivity”.

Take “QVQLVESGGGLVQAGGSLRLSCAASGSIFAGYAMGWYRQAPGKERELVATITSSSRTNYADSVKGRFTISRDNAKNTVYLQMNSLKPEDTAVYYCAARGRYVIDGYRMYYWGQGTQVTVSS”: the “polyreactivity (PSR sort gate)” value is given as “high polyreactivity”.

Consider “QVQLVESGGGLVQAGGSLRLSCAASGSIFAGYAMGWYRQAPGNERELVAAISNRGSSTNYADSVKGRFTISRDNAKITVYLQMNSLKPEDTAVYYCAVGPIRKYDYWGQGTQVTVSS”, for which the “polyreactivity (PSR sort gate)” value is on record as “high polyreactivity”.

“QVQLVESGGGLVQAGGSLRLSCAASGSIFALYAMGWYRQAPGKERELVAAISWRAGGTYYADSVKGRFTISRDNAKNTVYLQMNSLKPEDTAVYYCAAEISLYYYGDYEYWGVGTQVTVSS”: the “polyreactivity (PSR sort gate)” value is recorded as “high polyreactivity”.

As to “QVQLVESGGGLVQAGGSLRLSCAASGSIFALYTMGWYRPAPGKERELVAAISRRGGNTYYADSVKGRFTISRDNAKNTVYLQMNSLKPEDTAVYYCNADRLRSTHDYWGQGTQVTVSS”, the “polyreactivity (PSR sort gate)” value is “high polyreactivity”.

In the case of “QVQLVESGGGLVQAGGSLRLSCAASGSIFAPYAMGWYRQAPGKERELVAAINNNGGRTYYADSVKGRFTISRDNAKNTVYLQMNSLKPEDTAVYYCAKELGYDWYYRPYGYWGQGTQVTVSS”, the “polyreactivity (PSR sort gate)” value is recorded as “low polyreactivity”.

Consider “QVQLVESGGGLVQAGGSLRLSCAASGSIFAPYAMGWYRQAPGKERELVAAISTGGRTHYADSVKGRFTISRDNAKNTVYLHMNSLKPEDTAVYYCAAARPTAGVIRPHYYWGQGTQVTVSS”, for which the “polyreactivity (PSR sort gate)” value is “high polyreactivity”.

Regarding “QVQLVESGGGLVQAGGSLRLSCAASGSIFAPYAMGWYRQAPGKEREVVAAITSGVGSTYYADSVKGRFTISRDNAKNTVYLQMNSLKPEDTAVYYCAADSSYLTYWEYDYWGQGSQVTVSS”, the “polyreactivity (PSR sort gate)” value is “low polyreactivity”.
